Data on four molecules can be found in article PMC12871931, “The importin‐alpha superfamily engages in ethylene signaling by shuttling [sequence] INSENSITIVE 2 from the endoplasmic reticulum to the nucleus” (The Febs Journal, 2025).

One test relates to EIN2C^479–1294. Briefly: In planta FLIM‐FRET, EIN2C^479–1294‐CER donor, IMPα‐YFP acceptors. Format: cell-based, Arabidopsis thaliana. The conditions noted are these: N. benthamiana epidermal leaf cells; for average fluorescence lifetime of the EIN2C^479‐1294‐CER donor: co‐expression, vs donor only, Kruskal‐Wallis and Dunn's test, 18–20 measurements. From the text: To further investigate the interaction between members of the IMPα superfamily and EIN2 in planta, we used in vivo fluorescence lifetime microscopy and Förster's resonance energy transfer (FLIM‐FRET). Accordingly, the C‐terminal part of EIN2 (EIN2C^479–1294) was fused to the fluorescent protein Cerulean (CER), serving as a donor, and the IMPα isoforms (IMPα1‐7) were fused to YELLOW FL[…] (YFP), serving as acceptors.
A modified version of a previously described procedure was used for the transient transformation of N. benthamiana. An overnight culture of agrobacteria was inoculated in DYT and incubated at 28°C one day before infiltration. Bacteria were then centrifuged at 4000 g and resuspended in infiltration medium (5% (w/v) Saccharose; 0.01% (w/v) MgSO4; 0.01% (w/v) Glucose; Acetosyringone 450 μM) to an OD600 of 0.4–0.8. Resuspended bacteria were kept on ice for 1–2 h prior to infiltration. For co‐infiltration, bacteria solutions were mixed in equal quantities, and Agrobacterium strain GV3101:p19 expressing the p19 silencing inhibitor was added to each mix. Infiltration of the bacteria solution was performed with a 1 mL syringe onto the abaxial side of 3‐ to 4‐week‐old plants. Plants were kept under continuous light before microscopy analysis. For ß‐estradiol inducible constructs, plants were sprayed on the abaxial side of infiltrated leaves with an estradiol solution (ß‐estradiol 20 μM; Tween‐20 0.1% (w/v)) prior to imaging.
Fluorescence lifetime imaging was performed using a protocol described previously. Fluorescence lifetime was measured at a Zeiss LSM 780 confocal microscope (40× water immersion objective, Zeiss C‐PlanApo, NA 1.2). For TCSPC, a PicoQuant Hydra Harp 400 (PicoQuant, Berlin, Germany) was used. Photon counting was performed with a picosecond resolution. Cerulean was excited with a 440 nm ([…], 32 MHz, PicoQuant, Berlin, Germany) pulsed polarized laser. Laser power at the objective lens was adjusted to ~2.2 μW in N. benthamiana experiments. […] Photons were detected in both donor and acceptor channels simultaneously with Tau‐SPADs (PicoQuant, Berlin, Germany). […] Internal response functions for each laser were determined by measuring the fluorescence decay of quenched Atto425 in saturated KI, using the same hardware settings as for the FRET pair of interest. Fluorescence lifetime images were acquired in the cytosol, ER, or nucleus in donor‐only samples and samples with IMPα1‐4 and IMPα7. […]
The fluorescence decays were fitted using a previously reported method with minor modifications.
The fluorescence decays of selected ROIs in the FLIM image were analyzed with the SymPhoTime FLIM analysis software (SymPhoTime 64, version 2.4; PicoQuant, Berlin, Germany). […]

In another test the target is ΔIBB_IMPα1 (Arabidopsis thaliana, UniProt Q96321). In kind it is binding. From the text: Next, we used biolayer interferometry (BLI) with an Octet K2 instrument (Fortè Bio, Dallas, USA) to substantiate and further delineate the binding interactions between the IMPα superfamily and the EIN2‐NLS motif. BLI measures slight changes in reflected light at a sensor surface upon the formation of molecular complexes. Specifically, it monitors interference patterns of white light, which are reflected from two different surfaces: an internal reference layer and a layer of biomolecules immobilized on a biosensor tip.
ΔIBB_IMPα1, sequence (Q96321 whole entry, stated change not applied, the tested form may be a part): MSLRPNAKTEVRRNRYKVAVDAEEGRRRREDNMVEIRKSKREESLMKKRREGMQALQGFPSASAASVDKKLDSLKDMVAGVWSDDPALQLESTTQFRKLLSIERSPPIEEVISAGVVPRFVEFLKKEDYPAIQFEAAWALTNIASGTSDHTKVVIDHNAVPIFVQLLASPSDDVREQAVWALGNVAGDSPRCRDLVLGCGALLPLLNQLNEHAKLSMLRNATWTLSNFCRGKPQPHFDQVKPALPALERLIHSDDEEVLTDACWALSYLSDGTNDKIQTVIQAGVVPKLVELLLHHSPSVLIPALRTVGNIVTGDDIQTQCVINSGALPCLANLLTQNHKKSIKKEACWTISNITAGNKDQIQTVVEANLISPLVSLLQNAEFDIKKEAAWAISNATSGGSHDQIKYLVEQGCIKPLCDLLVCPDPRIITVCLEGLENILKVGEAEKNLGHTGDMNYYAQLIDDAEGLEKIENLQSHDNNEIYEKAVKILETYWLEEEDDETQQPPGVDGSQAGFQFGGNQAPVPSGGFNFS
In these binding assays, IMPα1 lacking the IBB domain (ΔIBB_IMPα1) and IMPα4 were selected as representatives of the IMPα superfamily. Prior to their interaction studies with different EIN2 CEND‐NLS probes, both importins were biotinylated with the Biotin‐PEG4‐NHS ester Protein Labeling Kit from Jena Bioscience (Jena, Germany) and immobilized onto streptavidin‐coated biosensor tips (Fig. 5).
Curve fitting of the BLI sensorgrams was tested with different binding models. […] This model assumes analyte binding at two independent ligand sites at the IMPα immobilized on the biosensor surface. Furthermore, each ligand site binds the analyte independently and with a different rate constant. […]

B1: IMPα5: A. thaliana IMPα5 fused to YFP, FRET acceptor (protein)
chain: MSLRPSTKTEIRRIRYKVSVDAEEGRRRREDFLVEIRKSKRNENLMKKRRVKVLPPDYKLISNDPFESLLEIANMITGVFSDDPSLQLEYTTRFRVVLSFDRSPPTDNVIKSGVVPRFVEFLKKDDNPKLQFEAAWALTNIASGASEHTKVVIDHGVVPLFVQLLASPDDDVREQAIWGLGNVAGDSIQCRDFVLNSGAFIPLLHQLNNHATLSILRNATWTLSNFFRGKPSPPFDLVKHVLPVLKRLVYSDDEQVLIDACWALSNLSDASNENIQSVIEAGVVPRLVELLQHASPVVLVPALRCIGNIVSGNSQQTHCVINCGVLPVLADLLTQNHMRGIRREACWTISNITAGLEEQIQSVIDANLIPSLVNLAQHAEFDIKKEAIWAISNASVGGSPNQIKYLVEQNCIKALCDILVCPDLRIILVSLGGLEMILIAGEVDKNLRDVNCYSQMIEDAEGLEKIENLQHHGNNEIYEKAVKILQTYGLVEEDGRLVEEEDEGGDGCSHPEFQFDFSR
modifications: left off: His6, C-terminal, state not stated
notes: A. thaliana IMPα5 fused to YFP, FRET acceptor
On to B1, for which the “average fluorescence lifetime of the EIN2C^479‐1294‐CER donor” value (from here on “average fluorescence lifetime”) in the test on EIN2C^479–1294 is “only slightly, but not significantly reduced”. This molecule returned an FRET efficiency in the test with EIN2C^479–1294 (mean, EIN2C^479–1294‐CER donor / IMPα‐YFP acceptor) of 1%.

B2: IMPα7‐YFP: A. thaliana IMPα7 fused to YFP, FRET acceptor (protein)
chain: MKGGETMSVRRSGYKAVVDGVGGRRRREDDMVEIRKAKREESLLKKRREALPHSPSADSLDQKLISCIWSDERDLLIEATTQIRTLLCGEMFNVRVEEVIQAGLVPRFVEFLTWDDSPQLQFEAAWALTNIASGTSENTEVVIDHGAVAILVRLLNSPYDVVREQVVWALGNISGDSPRCRDIVLGHAALPSLLLQLNHGAKLSMLVNAAWTLSNLCRGKPQPPFDQVSAALPALAQLIRLDDKELLAYTCWALVYLSDGSNEKIQAVIEANVCARLIGLSIHRSPSVITPALRTIGNIVTGNDSQTQHIIDLQALPCLVNLLRGSYNKTIRKEACWTVSNITAGCQSQIQAVFDADICPALVNLLQNSEGDVKKEAAWAICNAIAGGSYKQIMFLVKQECIKPLCDLLTCSDTQLVMVCLEALKKILKVGEVFSSRHAEGIYQCPQTNVNPHAQLIEEAEGLEKIEGLQSHENNDIYETAVKILETYWMEEEEEEDQEQQDMIYFPVDNFANMPTSSGTLSEMHCGP
modifications: left off: YFP, end not stated, kept
notes: A. thaliana IMPα7 fused to YFP, FRET acceptor
Take B2: in the test with EIN2C^479–1294, the “average fluorescence lifetime” value was “significant reduction”.

B3: IMPα6‐YFP: A. thaliana IMPα6 fused to YFP, FRET acceptor (protein)
chain: MSYKPSAKTEVRRNRYKVSVDADEGRRRREDNMVEIRKNKREENLQKKRREGFNPSMASQPGQDFSSSLPTETRLENIQQMIAGVMSEDRDLQLEATASFRRLLSIERNPPINEVVQSGVVPHIVQFLSRDDFTQLQFEAAWALTNIASGTSENTRVIIDSGAVPLFVKLLSSASEEVREQAVWALGNVAGDSPKCRDHVLSCEAMMSLLAQFHEHSKLSMLRNATWTLSNFCRGKPQPAFEQTKAALPALERLLHSTDEEVLTDASWALSYLSDGTNEKIQTVIDAGVIPRLVQLLAHPSPSVLIPALRTIGNIVTGDDIQTQAVISSQALPGLLNLLKNTYKKSIKKEACWTISNITAGNTSQIQEVFQAGIIRPLINLLEIGEFEIKKEAVWAISNATSGGNHDQIKFLVSQGCIRPLCDLLPCPDPRVVTVTLEGLENILKVGEAEKNLGNTGNDNLYAQMIEDADGLDKIENLQSHDNNEIYEKAVKILESYWAADDEEEDIGGVDAPENVQSSGFQFGNQSGNAPTGGFNFG
modifications: left off: YFP, end not stated, kept
notes: A. thaliana IMPα6 fused to YFP, FRET acceptor
Take B3: the “average fluorescence lifetime” value with EIN2C^479–1294 is “significant reduction”.

B4: GB1‐AtEIN2C^1215–1281: CEND construct containing a GB1‐tag to enhance solubility, produced recombinantly in E. coli (protein)
chain: {GB1 tag}-KGKCTTAVTLLDLIKDVEMAISCRKGRTGTAAGDVAFPKGKENLASVLKRYKRRLSNKPVGMNQDGP
modifications: not fully specified
notes: CEND construct containing a GB1‐tag to enhance solubility, produced recombinantly in E. coli
Consider B4, for which the Hill coefficient in the test with ΔIBB_IMPα1 (BLI dose response, ΔIBB_IMPα1) is 0.94 ± 0.06. Further, the Kd with ΔIBB_IMPα1 (BLI, ΔIBB_IMPα1 biotinylated on streptavidin biosensor (15 μM in 100 mM Tris pH 7.0, 100 mM KCl, 0.01% Tween 20), room temperature, association 300 s, dissociation 300 s, 1:2 heterogeneous ligand model, n = 3, read-out: K d + SD) was 8.8 ± 1.1 µM.
